Where two headings read alike, the source gives them in different places.
T1: Transmembrane-4 L six family member-1 (TM4SF1) (human, UniProt P30408 1-202, limits assumed)
T1 construct: also called human TM4SF1; hTM4SF1
T1 sequence: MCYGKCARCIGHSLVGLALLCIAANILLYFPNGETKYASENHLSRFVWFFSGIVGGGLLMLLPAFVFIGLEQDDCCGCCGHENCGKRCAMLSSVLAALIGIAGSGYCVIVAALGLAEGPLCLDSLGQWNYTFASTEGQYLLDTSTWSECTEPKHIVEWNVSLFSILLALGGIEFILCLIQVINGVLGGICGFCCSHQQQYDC

B1: AGX-A04 (antibody, V domains shown)
VH: EVQLQQSGPELVKPGASVKISCKTSGYTFTDYTMHWVRQSHGKSLEWIGSFNPNNGGLTNYNQKFKGKATLTVDKSSSTVYMDLRSLTSEDSAVYYCTRIRATGFDSWGQGTTLTVSS
VL: DIVMSQSPSSLAVSAGEKVTMSCKSSQSLLNSRTRKNYLAWYQQKPGQSPKLLIYWASTRESGVPDRFTGSGSGTDFTLTISNVQAEDLTVYYCKQSYNPPWTFGGGTKLEIK
notes: Monoclonal murine antibody; also called murine monoclonal antibody AGX-A04
B2: AGX-A05 (antibody, V domains shown)
VH: EVQVQQSGPELVKPGASVKMSCKASGYTFTSYVMHWVKQKPGQGLEWIGYINPNNDNINYNEKFKGKASLTSDKSSNTVYMELSSLTSEDSAVYYCAGYGNSGANWGQGTLVTVSA
VL: DIQMTQSPASLSASVGETVTITCRTSKNIFNFLAWYHQKQGRSPRLLVSHTKTLAAGVPSRFSGSGSGTQFSLKINSLQPEDFGIYYCQHHYGTPWTFGGGTKLEIK
notes: Monoclonal murine antibody; also called murine monoclonal antibody AGX-A05
B3: AGX-A08 (antibody, V domains shown)
VH: EVQLQQSGPELVKPGASVKLSCKASGYTVTSYVMHWVKQKPGQGLEWIGYINPYSDVTNCNEKFKGKATLTSDKTSSTAYMELSSLTSEDSAVYYCSSYGGGFAYWGQGTLVTVSA
VL: DIQMTQSPASLSASVGEPVTITCRASKNIYTYLAWYHQKQGKSPQFLVYNARTLAGGVPSRLSGSGSVTQFSLNINTLHREDLGTYFCQHHYDTPYTFGGGTNLEIK
notes: Monoclonal murine antibody; also called murine monoclonal antibody AGX-A08
B4: AGX-A03 (antibody, V domains shown)
VH: QIQLVQSGPELKKPGETVKISCKASGYSFRDYGMNWVKQAPGRTFKWMGWINTYTGAPVYAADFKGRFAFSLDTSASAAFLQINNLKNEDTATYFCARWVSYGNNRNWFFDFWGAGTTVTVSS
VL: DVLMTQTPLSLPVRLGDQASISCRSSQTLVHSNGNTYLEWYLQKPGQSPKLLIYKVSNRLSGVPDRFSGSGSGTDFTLKISRVETEDLGVYYCFQGSHGPWTFGGGTKLEIK
notes: Monoclonal murine antibody; also called Antibody AGX-A03; murine monoclonal antibody AGX-A03
B5: AGX-A07 (antibody, V domains shown)
VH: QIQLVQSGPELKKPGETVKISCKASGYTFTNYGVKWVKQAPGKDLKWMGWINTYTGNPIYAADFKGRFAFSLETSASTAFLQINNLKNEDTATYFCVRFQYGDYRYFDVWGAGTTVTVSS
VL: QIILSQSPAILSASPGEKVTMTCRANSGISFINWYQQKPGSSPKPWIYGTANLASGVPARFGGSGSGTSYSLTISRVEAEDAATYYCQQWSSNPLTFGAGTKLELR
notes: also called murine monoclonal antibody AGX-A07
B6: AGX-A09 (antibody, V domains shown)
VH: EVQLQQSGPELVKPGASVKMSCKASGYTFSSYVMHWVKQKPGQGLEWIGYINPYSDVTNYNEKFKGKATLTSDRSSNTAYMELSSLTSEDSAVYYCARNYFDWGRGTLVTVSA
VL: DIQMTQSPASLSASVGETVTITCRASKNVYSYLAWFQQKQGKSPQLLVYNAKTLAEGVPSRFSGGGSGTQFSLKINSLQPADFGSYYCQHHYNIPFTFGSGTKLEIK
notes: Monoclonal murine antibody; also called murine monoclonal antibody AGX-A09

Legend:
[1] = in vivo; cited from earlier work
[2] = tested on: HUVEC; assay: Cell killing assay in HUVEC (PrestoBlue viability, 5 days); assay type: cell-based; details: Homo sapiens
Experimental: To assess the effect of anti-TM4SF1 ADCs conjugated to carfilzomib, cytotoxicity of treated cell lines were assessed in cultured endothelial cell (HUVEC) and tumor cells (MiaPaca2 and SKOV3) in vitro. HUVEC was treated with free carfilzomib, CFZ-ND-ADC DAR 2.5, and CFZ-ND-ADC DAR 6.7, and maytansine-ND-ADC (DAR 2.0) and cytotoxicity was assessed (FIG. 2A). Cytotoxicity of HUVEC correlates with CFZ DAR. […] Cell killing assay. […] RPMI/10% FBS for MiaPaca2 and SKOV3). Cells are cultured for overnight at 37° C. degrees. On day 2, exemplary ADCs containing CFZ are serially diluted 5-fold in the culture media, and 100 µL of the diluted compounds is transferred to the cell plates. The final top concentration of the test exemplary ADCs in the cell plates is 333.335 nM and the lowest concentration is 0.0043 nM. […] 10 µl PrestoBlue HS cell viability reagent (ThermoFisher cat# P50201) is added to each well and incubated for 1 hour in CO2 incubator before reading the […] at 570 nm/600 nm excitation and emission through a plate reader (Varioskan™ LUX multimode microplate reader). To assess the effect of various anti-TM4SF1 ADCs conjugated to carfilzomib, cytotoxicity of treated cell lines were assessed. HUVEC was treated with free carfilzomib, and six ADCs (Table 1A) conjugated with carfilzomib (CFZ) with various linkers and/or DAR values, and cytotoxicity was assessed (Table 1B).

[3] = target: T1, Transmembrane-4 L six family member-1 …; assay: screen, method not described

| Molecule | binding result [3] | also measured |
| --- | --- | --- |
| COc1ccc(/C=C\c2cc(OC)c(OC)c(OC)c2)cc1OP(=O)(O)O [CA4P] | – | patients who experienced heart attacks while being treated [1]: seven |
| CC(C)C[C@H](NC(=O)[C@H](CCc1ccccc1)NC(=O)CN1CCOCC1)C(=O)N[C@@H](Cc1ccccc1)C(=O)N[C@@H](CC(C)C)C(=O)[C@@]1(C)CO1 [CFZ, (S)-4-Methyl-N—((S)-1-(((S)-4-methyl-1-((R)-2-methyloxiran-2-yl)-1-oxopentan-2-yl)amino)-1-oxo-3-phenylpropan-2-yl)-2-((S)-2-(2-morpholinoacetamido)-4-phenylbutanamido)-pentanamide] | – | EC50 ([2]; FIG. 2A, read-out: EC50, cytotoxicity of HUVEC): 11.9 nM; EC50 ([2]; read-out: killing in vitro (EC50 nM) HUVEC): 11.9 nM |
| B1 | binds | – |
| B2 | binds | – |
| B3 | binds | – |
| B4 | binds | – |
| B5 | binds | – |
| B6 | binds | – |

Reference: patent US20230293713A1, “ANTI-TM4SF1 ANTIBODY DRUG CONJUGATES AND METHODS OF USING SAME” (priority 2020, published 2023)
